Literature values in patent publication US20260174875A1 (Novo Nordisk A/S, priority 2023, published 2026).

Conditions: endogenous hormone; cited from earlier work

Substance: Amylin (KCNTATCATQRLANFLVHSSNNFGAILSSTNVGSNTY; Islet amyloid polypeptide; UniProt P10997 34-70, looked up) ["a 37-amino acid long polypeptide hormone produced in pancreatic beta (β)-cell from where it is co-secreted with insulin"]
- half-life: 15 to 20 min
